We go through 31 molecules from patent US20060020109A1 (Harvard, published 2006).

Experiment [1] addresses soluble recombinant HLA-DR2 molecules (MHC class II HLA-DR2 protein) (human). As to the kind of experiment: competition ELISA on soluble HLA-DR2; competitor biotinylated Cop 1 (1.5 µM). A general note: ELISA stands for enzyme-linked immunosorbent assay.
Experiment [2] shares this target. As to the kind of experiment: competition ELISA on soluble HLA-DR2; competitor biotinylated MBP 85-99 (0.13 µM).
Experiment [3] addresses T1, soluble recombinant HLA-DR2 molecules (MHC class II HLA-DR2 protein) (human).
T1 construct: Soluble, empty protein from Drosophila S2 cells, captured on plates by antibody LB3.1; also called MHC class II DR2 protein; recombinant HLA-DR2 protein
The description is as above.

The target of experiment [4] is T1, soluble recombinant HLA-DR2 molecules …. As to the kind of experiment: competition ELISA on soluble HLA-DR2; competitor biotinylated Cop 1 (1.5 µM).
Experiment [5] deals with HLA-DR2 (DRB1*1501) on antigen presenting cells (MGAR, L466) (human). As to the kind of experiment: cell-based or functional assay.
Experiment [6] deals with T2, soluble recombinant HLA-DR2 molecules (MHC class II HLA-DR2 protein) (human).
T2 chain 1: not shown
T2 chain 2: not shown
As to the kind of experiment: competition ELISA on soluble HLA-DR2; competitor biotinylated Cop 1 (1.5 µM). The following applies: remark: other sources report otherwise.

Bounds are passed on as bounds.

The IC50 is the midpoint of a concentration-inhibition curve. As to “Cop 1 (Copolymer 1; poly(Y,E,A,K); Copaxone), unlabeled”, the IC50 in experiment [1] was found to be 7 µM; in experiment [2], 100 µM.

B1: synthetic peptide #108 (peptide)
peptide: EEAAYKAAKAAAAAA
Consider B1, for which the half-maximal inhibitory concentration (IC50) is over 1000 µM in experiment [3] and 2 µM in experiment [4].

B2: synthetic peptide #64 (peptide)
peptide: AKAAYEAYAAAAAAA
With B2, the “Inhibition of IL-2 production (%), Hy1B” value in experiment [5] turned out to be 18%. Further, the IC50 in experiment [4] was over 1000 µM.

B3: synthetic peptide #113 (peptide)
peptide: EAKAYEYAKAAAAAA
With B3, the “Inhibition of IL-2 production (%), Hy1B” value in experiment [5] was 30%. Also, the 50% inhibitory concentration (IC50) in experiment [3] was over 1000 µM; in experiment [4], under 1 µM.

B4: synthetic peptide #106 (peptide)
peptide: EEKAYAYAKAAAAAA
For B4, the “Inhibition of IL-2 production (%), Hy1B” value in experiment [5] came out at 39%. Besides, the IC50 in experiment [3] is over 1000 µM; in experiment [4] it was 100 µM.

B5: synthetic peptide #53 (peptide)
peptide: AEEAYKAYAAAAAAA
Regarding B5, the “Inhibition of IL-2 production (%), Hy1B” value in experiment [5] came to 13%. In addition, the IC50 in experiment [3] is 150 µM; in experiment [4], over 150 µM.

B6: synthetic peptide #42 (peptide)
peptide: KEEYAAAAAAAAAAA
Take B6: the “Inhibition of IL-2 production (%), Hy1B” value in experiment [5] was 49%. Further, the concentration for half-maximal inhibition (IC50) in experiment [4] is over 1000 µM.

B7: synthetic peptide #112 (peptide)
peptide: EEAAYAYKKAAAAAA
Turning to B7, the “Inhibition of IL-2 production (%), Hy1B” value in experiment [5] stood at 32%. Besides, the IC50 was over 1000 µM in experiment [3] and 15 µM in experiment [4].

B8: synthetic peptide #51 (peptide)
peptide: AKAAAAEYAAAAAAA
As for B8, the “Inhibition of IL-2 production (%), Hy1B” value in experiment [5] is 3%. In addition, the IC50 in experiment [4] is over 1000 µM.

B9: synthetic peptide #103 (peptide)
peptide: AKKEYAEYKAAAAAA
On to B9, for which the “Inhibition of IL-2 production (%), Hy1B” value in experiment [5] was found to be 49%. Moreover, the figures for the concentration for half-maximal inhibition (IC50) in experiment [3] and in experiment [4] were over 150 µM and under 1 µM, respectively.

B10: synthetic peptide #107 (peptide)
peptide: ENPVVHYFKNIVTPR
notes: Analog of MBP 85-99 with F to Y at the position of MBP residue 91
As for B10, in experiment [5], the “Inhibition of IL-2 production (%), Hy1B” value amounted to 64%. In addition, the values for the IC50 in experiment [3] and in experiment [4] were under 1 µM and 40 µM, respectively.

B11: synthetic peptide #111 (peptide)
peptide: EEAAYKAAKAAAAAA
Consider B11, for which the IC50 in experiment [3] is over 1000 µM; in experiment [4], under 1 µM.

B12: synthetic peptide #70 (peptide)
peptide: AAAEYKAYAAAAAAA
As to B12, in experiment [5], the “Inhibition of IL-2 production (%), Hy1B” value is 24%. For the same molecule, the IC50 in experiment [4] is over 1000 µM.

B13: synthetic peptide #66 (peptide)
peptide: AEAEYKAYAAAAAAA
For the molecule B13, the “Inhibition of IL-2 production (%), Hy1B” value in experiment [5] is 43%. Besides, in experiment [4], the IC50 was over 1000 µM.

B14: synthetic peptide #61 (peptide)
peptide: AAEEYKAYAAAAAAA
Turning to B14, the “Inhibition of IL-2 production (%), Hy1B” value in experiment [5] is 35%. Moreover, in experiment [4], the IC50 was over 1000 µM.

B15: synthetic peptide #43 (peptide)
peptide: AEKAYAAAAAAAAAA
For the molecule B15, the “Inhibition of IL-2 production (%), Hy1B” value in experiment [5] worked out at 0%. The IC50 in experiment [6] was over 1000 µM.

B16: synthetic peptide #117 (peptide)
peptide: AAEAYAAAAAAAAAA
Take B16: in experiment [5], the “Inhibition of IL-2 production (%), Hy1B” value came to 25%. In addition, in experiment [4], the 50% inhibitory concentration (IC50) was over 1000 µM.

B17: synthetic peptide #102 (peptide)
peptide: EAKKYEAYKAAAAAA
For the molecule B17, the “Inhibition of IL-2 production (%), Hy1B” value in experiment [5] turned out to be 57%. The results for the IC50 in experiment [3] and in experiment [4] were 20 µM and 2 µM, respectively.

B18: synthetic peptide #100 (peptide)
peptide: EAAKYEAYKAAAAAA
In the case of B18, the “Inhibition of IL-2 production (%), Hy1B” value in experiment [5] stood at 56%. In addition, the IC50 in experiment [3] was over 150 µM; in experiment [4] it was 2 µM.

B19: synthetic peptide #104 (peptide)
peptide: AAEKYAEYKAAAAAA
For the molecule B19, the “Inhibition of IL-2 production (%), Hy1B” value in experiment [5] stood at 53%. The IC50 in experiment [3] is over 150 µM; in experiment [4], 20 µM.

B20: synthetic peptide #101 (peptide)
peptide: EKAKYEAYKAAAAAA
Regarding B20, the “Inhibition of IL-2 production (%), Hy1B” value in experiment [5] stood at 53%. Further, the values for the half-maximal inhibitory concentration (IC50) in experiment [3] and in experiment [4] were 3 µM and under 1 µM, respectively.

B21: synthetic peptide #99 (peptide)
peptide: EAAAYKAYKAAAAAA
As for B21, in experiment [5], the “Inhibition of IL-2 production (%), Hy1B” value is 57%. Also, the figures for the half-inhibitory concentration (IC50) in experiment [3] and in experiment [4] were 5 µM and over 150 µM, respectively.

B22: synthetic peptide #93 (peptide)
peptide: AAKAYEAYKAAAAAA
Consider B22, for which, in experiment [5], the “Inhibition of IL-2 production (%), Hy1B” value came out at 48%. Further, the IC50 was 8 µM in experiment [3] and over 150 µM in experiment [4].

B23: synthetic peptide #119 (peptide)
peptide: AAEKAAAAAAAAAAA
B23: the “Inhibition of IL-2 production (%), Hy1B” value in experiment [5] was found to be 26%. Also, the IC50 in experiment [4] is over 1000 µM.

B24: synthetic peptide #95 (peptide)
peptide: EAKAYEAYKAAAAAA
Take B24: in experiment [5], the “Inhibition of IL-2 production (%), Hy1B” value amounted to 47%. Besides, the IC50 in experiment [3] is 40 µM; in experiment [4], over 1000 µM.

B25: synthetic peptide #94 (peptide)
peptide: AAEAYKAYKAAAAAA
For the molecule B25, the “Inhibition of IL-2 production (%), Hy1B” value in experiment [5] came to 50%. The IC50 in experiment [3] is 3 µM; in experiment [4] it was over 150 µM.

B26: synthetic peptide #52 (peptide)
peptide: AEKAYAAYAAAAAAA
Turning to B26, the “Inhibition of IL-2 production (%), Hy1B” value in experiment [5] came to 20%. For the same molecule, the figures for the half-maximal inhibitory concentration (IC50) in experiment [3] and in experiment [4] were 150 µM and over 150 µM, respectively.

B27: synthetic peptide #118 (peptide)
peptide: AAEAVAAAAAAAAAA
With B27, the “Inhibition of IL-2 production (%), Hy1B” value in experiment [5] turned out to be 38%. The half-inhibitory concentration (IC50) in experiment [4] was over 1000 µM.

B28: synthetic peptide #96 (peptide)
peptide: EAEAYKAYKAAAAAA
Turning to B28, in experiment [5], the “Inhibition of IL-2 production (%), Hy1B” value was determined as 43%. The 50% inhibitory concentration (IC50) in experiment [3] was 6 µM; in experiment [4], over 1000 µM.

B29: synthetic peptide #45 (peptide)
peptide: AKEAAAAYAAAAAAA
As to B29, the “Inhibition of IL-2 production (%), Hy1B” value in experiment [5] is 0%. Also, the values for the 50% inhibitory concentration (IC50) in experiment [3] and in experiment [4] were 95 µM and over 150 µM, respectively.

B30: synthetic peptide #50 (peptide)
peptide: AKKAAEAYAAAAAAA
Turning to B30, the “Inhibition of IL-2 production (%), Hy1B” value in experiment [5] was 22%. Moreover, the 50% inhibitory concentration (IC50) in experiment [3] came out at 10 µM; in experiment [4], 40 µM.
